This experiment deals with mGq fused to GFP10. Description: BRET (mGq-GFP recruitment to Rluc-fused receptor). As to conditions: n = 4, parent: est. 0.30, read off a plot.

As for “US28-Rluc (from UniProt P69332) US28-PDCT: S>A at 12 sites and T>V at 2 sites after helix 8, in the printed stretch QRLF[S>A]RDV[S>A]WYH[S>A]M[S>A]F[S>A]RR[S>A][S>A]P[S>A]RRE[T>V][S>A][S>A]D[T>V]L[S>A]DEVCRV[S>A]QIIP; residue numbers not printed”, the response is 0.31 (parental HEK-293 cells) and 0.26 (β-arrestin 1/2-deficient (Δβarr1/2) HEK-293 cells).

These data come from doi:10.1101/2025.06.12.659276.
